Reference: patent US20030220285A1

What was measured:
[1] = biological target: purified HLA-A11 molecules (human)
[2] = biological target: purified HLA-A2.1 molecules (human); settings: remark: other sources report otherwise

Row | Binder | IC50 [1] | IC50 [2]
1 | TVYYGVPVWK (modifications not checked) [HIV Env 49 (HIV env 49-58) peptide …] | 4 nM | 
2 | WLSLLVPFV (modifications not checked) [HBV Env 335 (HBV env 335-343) peptide …] |  | 5 nM
